The values below come from patent US20210388116A1 (University of California, published 2021).

Where no end group is shown, it is not given here. The star is where a group is joined. Biotin = O=C1N[C@H]2[C@H](CS[C@H]2CCCCC(=O)*)N1

The target in test [1] is T1, copper oxidized LDL (CuOxLDL) (human, UniProt P04114 28-4563, limits assumed, copper-oxidized; enriched in oxidized phospholipid (OxPL); positions not stated).
T1 construct: A modified lipoprotein particle (protein plus lipid), prepared as in Gonen et al
T1 sequence (P04114 28-4563 limits assumed): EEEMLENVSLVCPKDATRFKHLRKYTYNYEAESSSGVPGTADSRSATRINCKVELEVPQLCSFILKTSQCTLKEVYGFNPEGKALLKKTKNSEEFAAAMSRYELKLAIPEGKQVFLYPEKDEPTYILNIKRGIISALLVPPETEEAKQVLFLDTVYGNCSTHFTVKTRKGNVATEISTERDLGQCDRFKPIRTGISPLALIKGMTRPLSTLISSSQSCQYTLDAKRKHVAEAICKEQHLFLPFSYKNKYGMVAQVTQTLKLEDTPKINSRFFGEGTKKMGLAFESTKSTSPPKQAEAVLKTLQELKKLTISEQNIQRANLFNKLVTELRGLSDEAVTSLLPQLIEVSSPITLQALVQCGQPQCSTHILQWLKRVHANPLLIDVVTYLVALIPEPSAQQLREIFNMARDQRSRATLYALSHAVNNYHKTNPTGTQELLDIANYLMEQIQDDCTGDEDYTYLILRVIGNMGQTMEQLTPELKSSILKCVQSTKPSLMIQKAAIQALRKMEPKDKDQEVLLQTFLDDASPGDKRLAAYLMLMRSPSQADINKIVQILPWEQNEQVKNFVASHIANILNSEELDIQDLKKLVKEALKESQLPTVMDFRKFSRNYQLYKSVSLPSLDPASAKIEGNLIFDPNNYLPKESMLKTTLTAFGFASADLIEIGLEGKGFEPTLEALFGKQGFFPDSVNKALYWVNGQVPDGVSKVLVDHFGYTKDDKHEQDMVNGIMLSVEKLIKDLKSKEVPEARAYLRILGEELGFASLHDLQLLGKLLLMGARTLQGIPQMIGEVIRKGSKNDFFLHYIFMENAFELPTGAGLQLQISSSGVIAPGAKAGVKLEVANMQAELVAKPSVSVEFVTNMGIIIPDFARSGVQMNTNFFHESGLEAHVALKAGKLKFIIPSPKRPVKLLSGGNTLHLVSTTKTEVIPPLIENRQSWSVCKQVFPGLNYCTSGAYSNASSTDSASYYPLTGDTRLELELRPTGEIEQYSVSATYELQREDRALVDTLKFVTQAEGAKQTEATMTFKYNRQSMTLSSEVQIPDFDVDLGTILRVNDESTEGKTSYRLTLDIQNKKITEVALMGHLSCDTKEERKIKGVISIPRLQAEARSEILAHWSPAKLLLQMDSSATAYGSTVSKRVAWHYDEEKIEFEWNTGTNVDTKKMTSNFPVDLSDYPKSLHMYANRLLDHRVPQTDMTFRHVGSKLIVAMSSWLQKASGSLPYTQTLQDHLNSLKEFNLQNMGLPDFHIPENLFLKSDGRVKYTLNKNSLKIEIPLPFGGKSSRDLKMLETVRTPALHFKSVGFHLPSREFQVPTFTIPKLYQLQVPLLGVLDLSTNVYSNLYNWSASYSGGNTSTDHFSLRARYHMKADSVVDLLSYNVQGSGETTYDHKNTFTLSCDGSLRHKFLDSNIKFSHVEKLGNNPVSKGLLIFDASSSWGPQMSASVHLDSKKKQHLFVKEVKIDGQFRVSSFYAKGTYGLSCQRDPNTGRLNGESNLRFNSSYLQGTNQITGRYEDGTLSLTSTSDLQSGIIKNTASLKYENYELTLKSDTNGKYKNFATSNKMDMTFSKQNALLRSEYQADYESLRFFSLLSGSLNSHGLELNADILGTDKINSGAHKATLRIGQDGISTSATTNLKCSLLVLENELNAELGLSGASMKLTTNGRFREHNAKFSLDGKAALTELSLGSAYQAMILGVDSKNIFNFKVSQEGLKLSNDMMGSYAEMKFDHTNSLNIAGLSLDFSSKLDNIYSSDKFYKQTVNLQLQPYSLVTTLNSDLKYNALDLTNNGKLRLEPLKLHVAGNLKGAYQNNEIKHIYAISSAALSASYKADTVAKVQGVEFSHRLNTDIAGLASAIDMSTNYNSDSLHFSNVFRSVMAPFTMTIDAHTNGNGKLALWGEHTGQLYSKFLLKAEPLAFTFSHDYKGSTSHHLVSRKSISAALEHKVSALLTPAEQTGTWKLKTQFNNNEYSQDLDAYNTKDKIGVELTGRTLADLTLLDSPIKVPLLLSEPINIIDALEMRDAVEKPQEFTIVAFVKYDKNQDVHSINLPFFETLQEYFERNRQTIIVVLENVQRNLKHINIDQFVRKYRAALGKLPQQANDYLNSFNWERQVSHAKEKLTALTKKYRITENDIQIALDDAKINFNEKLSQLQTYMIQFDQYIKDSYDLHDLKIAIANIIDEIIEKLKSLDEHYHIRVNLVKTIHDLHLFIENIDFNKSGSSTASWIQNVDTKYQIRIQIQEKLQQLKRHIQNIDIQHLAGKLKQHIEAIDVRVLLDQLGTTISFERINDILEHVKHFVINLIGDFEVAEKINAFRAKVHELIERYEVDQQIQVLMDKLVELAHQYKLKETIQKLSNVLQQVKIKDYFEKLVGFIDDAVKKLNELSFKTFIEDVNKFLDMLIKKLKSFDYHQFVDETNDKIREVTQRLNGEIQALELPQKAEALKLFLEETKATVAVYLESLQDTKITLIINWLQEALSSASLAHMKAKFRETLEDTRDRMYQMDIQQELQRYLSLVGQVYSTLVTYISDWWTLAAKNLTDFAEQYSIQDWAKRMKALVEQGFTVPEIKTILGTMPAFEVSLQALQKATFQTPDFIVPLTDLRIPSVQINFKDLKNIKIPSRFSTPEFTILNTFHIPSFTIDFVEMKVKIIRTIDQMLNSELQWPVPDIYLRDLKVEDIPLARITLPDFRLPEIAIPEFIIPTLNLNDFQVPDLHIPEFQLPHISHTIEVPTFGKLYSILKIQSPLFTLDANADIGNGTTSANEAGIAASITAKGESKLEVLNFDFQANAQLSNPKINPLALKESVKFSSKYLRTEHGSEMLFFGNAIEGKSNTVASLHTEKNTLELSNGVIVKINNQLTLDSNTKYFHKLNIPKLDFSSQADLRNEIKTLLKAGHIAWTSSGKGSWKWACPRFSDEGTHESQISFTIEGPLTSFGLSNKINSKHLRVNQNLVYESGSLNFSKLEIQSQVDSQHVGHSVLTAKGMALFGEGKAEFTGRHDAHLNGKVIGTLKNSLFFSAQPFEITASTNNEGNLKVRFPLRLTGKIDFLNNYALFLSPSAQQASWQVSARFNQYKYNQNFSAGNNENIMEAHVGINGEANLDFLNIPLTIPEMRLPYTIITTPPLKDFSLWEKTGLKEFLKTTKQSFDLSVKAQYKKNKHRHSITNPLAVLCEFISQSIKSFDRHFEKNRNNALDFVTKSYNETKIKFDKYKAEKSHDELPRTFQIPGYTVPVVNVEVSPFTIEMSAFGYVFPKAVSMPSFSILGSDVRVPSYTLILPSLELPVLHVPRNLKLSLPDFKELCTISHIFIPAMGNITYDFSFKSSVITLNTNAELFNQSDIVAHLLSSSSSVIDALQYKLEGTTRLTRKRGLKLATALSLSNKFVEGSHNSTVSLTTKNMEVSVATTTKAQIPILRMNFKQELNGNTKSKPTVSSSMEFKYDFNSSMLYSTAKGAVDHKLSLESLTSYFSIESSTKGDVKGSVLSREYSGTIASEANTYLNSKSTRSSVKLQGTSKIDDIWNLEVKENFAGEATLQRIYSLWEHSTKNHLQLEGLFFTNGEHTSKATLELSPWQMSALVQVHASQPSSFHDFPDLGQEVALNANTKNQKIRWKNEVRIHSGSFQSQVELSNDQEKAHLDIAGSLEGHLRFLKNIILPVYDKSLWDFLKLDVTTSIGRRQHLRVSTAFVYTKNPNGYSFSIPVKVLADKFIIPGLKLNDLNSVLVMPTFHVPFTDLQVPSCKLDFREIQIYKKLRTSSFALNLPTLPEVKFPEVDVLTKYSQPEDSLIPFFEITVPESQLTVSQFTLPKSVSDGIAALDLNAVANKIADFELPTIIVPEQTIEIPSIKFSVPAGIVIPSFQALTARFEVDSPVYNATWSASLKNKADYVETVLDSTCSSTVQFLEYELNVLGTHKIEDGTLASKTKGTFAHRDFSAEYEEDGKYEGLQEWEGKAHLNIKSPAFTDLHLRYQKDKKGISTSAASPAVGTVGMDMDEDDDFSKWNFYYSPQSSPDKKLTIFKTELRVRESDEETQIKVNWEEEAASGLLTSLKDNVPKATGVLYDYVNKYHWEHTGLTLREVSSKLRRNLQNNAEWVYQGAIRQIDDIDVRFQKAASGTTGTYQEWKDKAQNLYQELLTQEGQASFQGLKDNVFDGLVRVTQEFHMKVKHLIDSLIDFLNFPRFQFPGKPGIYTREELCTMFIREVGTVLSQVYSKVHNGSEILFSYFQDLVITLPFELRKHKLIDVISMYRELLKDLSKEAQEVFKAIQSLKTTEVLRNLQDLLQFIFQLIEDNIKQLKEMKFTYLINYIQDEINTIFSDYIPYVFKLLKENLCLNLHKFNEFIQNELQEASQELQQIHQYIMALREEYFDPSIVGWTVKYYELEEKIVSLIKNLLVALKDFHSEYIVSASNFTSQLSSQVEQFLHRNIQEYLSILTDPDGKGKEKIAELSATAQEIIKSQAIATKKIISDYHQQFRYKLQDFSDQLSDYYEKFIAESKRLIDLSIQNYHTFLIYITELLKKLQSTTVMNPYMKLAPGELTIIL
In words: chemiluminescent ELISA on plated antigen. The protocol: Representative gel and blots from 20 repeats. (B) Representative results of AG23 (0.125 μg/mL) binding to BSA, OxCE-BSA, MDA-LDL and CuOxLDL (5 μg/mL). Four different OxCE-BSA preparations were tested in 12 independent experiments, with AG23 concentrations ranging from […]. […] Mean±SD; one-way ANOVA with multiple comparisons; ****, P<0.0001. (C) Competition ELISA: AG23 (0.01 μg/mL) was preincubated in the absence or presence of increasing concentrations of non-modified KLH or OxCE-KLH. Immune complexes were spun down, and supernatants were tested for binding to OxCE-BSA (5 μg/mL). Each data point is the mean of two independent assays in technical triplicates. (D) AG23 (1 μg/mL) binding to 10 μg/mL of non-modified G6K-OH and G6A-OH peptides, and the peptides subjected to the OxCE covalent modification. […] Mean±SD; n=6 for G6K and n=2 for G6A, each in technical duplicates; one-way ANOVA with multiple comparisons; **, P<0.01. (E-F) AG23 (0.15 μg/mL) was preincubated overnight with non-modified (250 μg/mL) or OxCE-modified (10-250 μg/mL) BSA or GDGDGK-OH peptide. […] After washes, AG23 binding to the wells was measured. […]
Monoclonal antibody binding to an array of epitopes was measured by chemiluminescent ELISA as described in Gonen et al. In brief, wells were coated with antigens at 5 μg/mL in PBS overnight at 4° C. […]

Test [2] concerns the target T2, G6A/OxCE reaction product (biotin-GDGDGA peptide subjected to the OxCE modification procedure).
T2 construct: Negative control peptide in which the C-terminal Lys is replaced with Ala
T2 peptide: Biotin-GDGDGA
The experiment in a line: peptide ELISA on streptavidin plates. The protocol: Biotinylated short peptides G6A-OH, G6K-OH (non-modified) or G6K-OxCE (modified with OxCE) were immobilized to streptavidin pre-coated plates (Eagle Biosciences, Amherst, N.H.), at 10 μg/mL in PBS, overnight at 4° C. After washing with PBS, AG23 was added at 1 μg/mL in 1% BSA-TBS and incubated at room temperature for 90 min. The remaining ELISA was completed as described above.
A general note: In an ELISA, binding on a coated surface is turned into a signal by an enzyme label.

B1: monoclonal Ab (mAb) AG23 (antibody, mouse IgG1, kappa, V domains shown)
VH: EVQLQQSGPELVKPGASVKISCKASGYSFTGYYMNWVRQSPEKNLEWIGEINPYTGGTTYNQKFKARATLTVDKSSSTAYVQLKSLTSEDSAVYFCVSWDYDLDYWGQGTTLTVSS
VL: QIVLTQSPAFMSASPGEKVTMTCSASSSVSYMHWYQQKSGTSPKRWIYATSKVASGVPARFSGSGSGTSYSLTISSMEAEDAATYYCLQWSSNPYTFGGGTKLEIKR
notes: Murine hybridoma IgG purified over Protein A/G; Used biotinylated in some sandwich ELISAs; also called Clone 23; colony #23
In the case of B1, the binding result in test [1] is “no binding (tested: AG23 0.125 µg/mL; antigen 5 µg/mL)”; in test [2] it was “no binding (tested: AG23 1 µg/mL; peptide 10 µg/mL)”.
